± gives the uncertainty stated by the source.
Assay: amyloid nucleation score (Sup35N fusion, yeast selection) (log enrichment); library NNK3; higher = more nucleation; inactive = no reads after selection
Outline: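 Plasmid inserts were Illumina-sequenced at input and output from psi-negative yeast expressing Sup35N fused to peptides of 20 random codons. The yeast were induced with 100 μM copper sulfate for 24 hours and grown 7 days at 30°C on medium lacking adenine and uracil, and sequences with under 100 input reads were excluded. Nucleation score is the DiMSum log enrichment of output over input reads, centred on the mode score of non-aggregating sequences.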

| Substance | amyloid nucleation score |
| --- | --- |
| FFEWRTGLFVLWLSEVTSLM | inactive |
| FFGWSSRVSSACAVPVEINS | inactive |
| FFILFMRRLDW | 0.323 ± 0.22 |
| FFIYKFYPFRGISLSAVRIR | inactive |
| FFKYYG | inactive |
| FFLSTTGSMPHFPFKVSSSF | 0.088 ± 0.24 |
| FFLVLNSACME | 0.058 ± 0.36 |
| FFNDSYIRYFSCM | 0.02 ± 0.77 |
| FFNSVMIYGWS | 0.07 ± 0.3 |
| FFSAFID | inactive |
| FFSISFS | inactive |
| FFSLLT | inactive |
| FFSTLVYNRRIVCWFRSGR | -1.49 ± 2.5 |
| FFVFSRLVYPWCGMFFLSLK | inactive |
| FFVWKHLLMRFRYALACTLM | inactive |
| FGAKR | 0.909 ± 0.18 |
| FGLEFWTYTSIRFWLEYKPH | 0.972 ± 0.099 |
| FGMSILVFFTVDRSLET | inactive |
| FGRIGSYWTMVQ | inactive |
| FGSFQMGLWFVMNEVDQVKG | inactive |
| FGTHFIESSNVNNNTPVVSP | inactive |
| FGTNVPISNLIKEVLYIRYS | inactive |
| FGYHYWVSATCMSLALSWLT | inactive |
| FGYNWDCCRYMHDPRGLVTT | inactive |
| FHCSDYADVHSILTLLLVHT | inactive |

| Substance | amyloid nucleation score |
| --- | --- |
| FHQLGICKFKA | -0.387 ± 0.88 |
| FHTFSVCVGRGTMYYRALEE | 0.277 ± 0.23 |
| FHTSKLHRFPHLK | inactive |
| FIIAWWCNVSVDKTSERHYV | 1.55 ± 0.079 |
| FIIISIYGCIIVRWTKRAWG | inactive |
| FILQGFPE | inactive |
| FILSVWLYTS | inactive |
| FIPYYRCDQMLSGILVRFFS | inactive |
| FIRVFYSCIYVDKVLCEGRL | 1.5 ± 0.11 |
| FISDRQSASYPWVQFWPE | 0.206 ± 0.7 |
| FISSLSRSFL | inactive |
| FITGCSYVAYFMIAA | inactive |
| FIVPWLFICRVVRNCVDSAV | inactive |
| FIVVQGIAPCGFTS | inactive |
| FIYNVDVHCASSVNIGWGQK | 2.83 ± 0.08 |
| FKCAADCVFLALYYMDGWKS | inactive |
| FKLDSMCRLKRAAN | inactive |
| FKRGTCISSSNYNIYCYWKC | inactive |
| FKRLLARV | -0.362 ± 0.98 |
| FKSLLSRISHFKFASGWYVH | inactive |
| FKVSFIWCCNFKMSCGAYER | 0.446 ± 0.4 |
| FLAMSSASMFRYFKPVASSE | 2.91 ± 0.066 |
| FLAVLNLPGCGMDMRNLINL | inactive |
| FLCIVSAYF | inactive |
| FLCLSKGTGVAISKMSQN | inactive |

| Substance | amyloid nucleation score |
| --- | --- |
| FLCMLVYI | 1.23 ± 0.11 |
| FLDFQLFLCTHYLGRI | inactive |
| FLDSLYKRGCNKFGQLWR | inactive |
| FLIKNMY | inactive |
| FLNCSSQKNATPHILFNGGM | inactive |
| FLNIGYLNSRYNFLRNSVLV | inactive |
| FLNSKGFTIAGYKNSKWGSR | inactive |
| FLPDSFESYEKEVHTMDESS | inactive |
| FLRCIC | inactive |
| FLRFWARSNPGTWLIVHGMG | -0.69 ± 1.4 |
| FLRGLVK | inactive |
| FLRKFRLTLIYVTRASWLGG | inactive |
| FLRKGYFNSTSFTDALGGNL | -1.26 ± 1.8 |
| FLRMHVRGFDTFRARQ | inactive |
| FLRRLSRKTKDMDSSRGMCC | inactive |
| FLSFTSRNLTYFCDCRFSLI | inactive |
| FLSVECLRAMTWCQLLDAGS | inactive |
| FLTAKKSEFERTLEFRLWWC | inactive |
| FLTVIGLYNLSDGPCCK | 1.79 ± 0.06 |
| FLTWRIGVVS | inactive |
| FLVICCCWD | 2.08 ± 0.062 |
| FLWLKHSQSHVRERL | inactive |
| FLWMSAEGLSK | inactive |
| FLYDVFPSPGLMMVLWFGLC | inactive |
| FMEYFTCGV | inactive |

| Substance | amyloid nucleation score |
| --- | --- |
| FMGDRLKEAGDRTLYDQKVG | inactive |
| FMGFFYNFYVPKLKSSVHNE | 0.303 ± 0.34 |
| FMGGIFAVFTRILVHSIWYS | inactive |
| FMGSGQVVNTRASGIMGLFF | inactive |
| FMISDNMAQCMERGYRAEVF | inactive |
| FMIYYLGLFRR | inactive |
| FMKCDTTSAAGCRRSSSRDK | inactive |
| FMLRFPLPPSKIHVRYMPTC | inactive |
| FMSSFISMYFASAFHYAMWH | inactive |
| FMVILMRAISMSKIKSILYH | inactive |
| FMYVRCQIVADTCFGIASWG | -0.032 ± 0.82 |
| FNANI | 0.12 ± 0.34 |
| FNDLSAVFYLQGLKLDL | inactive |
| FNFNLKFKTFGKMYFTGPES | 0.628 ± 0.25 |
| FNHSRYDSVFWFVVHPSYEG | inactive |
| FNIHSQIAFLFLCGYLESTV | 1.94 ± 0.075 |
| FNRLDTNTTSGPRTGTTLEM | inactive |
| FNVYMIITNFLDPL | 2.64 ± 0.062 |
| FNYMCNLNVCRNIILMTLEL | 2.69 ± 0.07 |
| FPCSGPACYIYYTLHGLSLG | inactive |
| FPFKV | inactive |
| FPIDC | 0.082 ± 0.58 |
| FQESVIWKVYRNNNYRSLTV | inactive |
| FQNDDVTS | inactive |
| FQPSSASPIGWIGMSAFDSW | inactive |

| Substance | amyloid nucleation score |
| --- | --- |
| FRFASYRSYLIVMP | inactive |
| FRFSMSL | inactive |
| FRFTFLMRNML | inactive |
| FRFWPFSPICNWY | inactive |
| FRFYLCDDFMCNVLHYQPRN | 3.19 ± 0.073 |
| FRILIIFSVYGSMISHLP | inactive |
| FRPAN | -0.286 ± 0.78 |
| FRQLQGTSMLYLATPWS | inactive |
| FRSKLTW | inactive |
| FRVLYDCGTGYAVCYAMEVK | inactive |
| FRVVNMSWCAPNLTLRFKYL | inactive |
| FRYLNLKKDD | inactive |
| FRYPLNYN | inactive |
| FRYVHIHLRYQPGF | inactive |
| FSALMIY | 0.015 ± 0.32 |
| FSCIKTRMVGYSLRLNQFVD | inactive |
| FSFNAG | inactive |
| FSFPMEIWKGFVYRTA | 3.16 ± 0.081 |
| FSILAFMSDLLS | inactive |
| FSIPCDFDDNFATQELS | inactive |
| FSLFLTLFHFFHTRLAACLL | inactive |

From the supplement of paper PMC12042874
